No end group written: not given here. fluorescein = fluorescein, fluorescent label at the C-terminus
How the values were obtained:
[1] = molecular target: T1, Cannabinoid receptor 2 (Homo sapiens, UniProt P34972); experiment: fluorescence saturation binding on CHO-K1-hCB2 cells
[2] = molecular target: T1, Cannabinoid receptor 2; experiment: radioligand binding [3H]CP55,940, ternary complex allosteric model
[3] = molecular target: T1, Cannabinoid receptor 2; experiment: fluorescent pepcan-F4 displacement on CHO-K1-hCB2 cells
[4] = molecular target: T1, Cannabinoid receptor 2; experiment: radioligand binding [3H]WIN55,212-2, ternary complex allosteric model

T1 sequence (P34972 whole entry): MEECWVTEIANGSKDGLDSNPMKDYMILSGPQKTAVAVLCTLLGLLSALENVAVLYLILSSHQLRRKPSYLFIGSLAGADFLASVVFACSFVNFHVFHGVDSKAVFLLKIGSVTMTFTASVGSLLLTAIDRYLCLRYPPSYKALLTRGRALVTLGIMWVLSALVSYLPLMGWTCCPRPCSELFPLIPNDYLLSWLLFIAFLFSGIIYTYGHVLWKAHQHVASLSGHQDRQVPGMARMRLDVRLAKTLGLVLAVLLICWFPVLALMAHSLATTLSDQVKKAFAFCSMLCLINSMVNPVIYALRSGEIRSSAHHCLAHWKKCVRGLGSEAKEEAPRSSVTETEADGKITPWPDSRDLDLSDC

RVDPVNFKLLSH-fluorescein [Pepcan-F4]
Kd [1]: 122 nM

RVDPVNFKLLSH ([3H]CP55,940 present)
Kd [2]: 58 nM

RVDPVNFKLLSH
Ki [3]: 44 nM

RVDPVNFKLLSH ([3H]WIN55,212-2 present)
Kd [4]: 53 nM

Reference: PMC5573408 (2017)
